Measured values taken from PMC3305808 (Molecular Microbiology, 2012).
Substitutions are numbered along the chain they refer to. Names and notes keep the numbering of the source.

B1: λcIDB-AaTadZ (TadZ of Aggregatibacter actinomycetemcomitans fused to the N-terminal DNA-binding domain of λ cI) (natural protein)
chain: MLLLDQETITADSARTITVVSSRDDIQGEVAQTLRTRGLENIEIVKKDFFTSSDEISFSAEDTVGVIIDITHETNIKTIVERVFSVVPQNVWCCVIGDSDSISLSQKLLDEGILYFNSHTQLSQMVEKIILGVDIPRLRDTVKIAVLSCKGGIGASLISSHIANEIVSSKKIPVLLAQGPNGSQDLDLLFDKKLSGNVIEYAPNLDIFNGGLFELTPAATEKYNFIIYDQPIYNVKKDNFIGFLENYNNFVLVVERKIGSLRLAKQFLDECERIRSTSRKPIRTFVCISDNRLEAAKLMAKNDIETLIGSSIDAIIPYVKNTNTKTVLGINLGRDGKKEINSLMLKVIGAISRSSKPKEKQSLFSSFFTKLIKQ
B2: λcIDB-AaTadZ S156A (natural protein)
chain: B1 chain with S156A
B3: λcIDB-AaTadZ A155K (natural protein)
chain: B1 chain with A155K
B4: λcIDB-AaTadZ S156T (natural protein)
chain: B1 chain with S156T
B5: λcIDB-AaTadZ K150A (natural protein)
chain: B1 chain with K150A
B6: λcIDB-AaTadZ K150R (natural protein)
chain: B1 chain with K150R

Molecular target: the molecule itself
Assay: λ cI repressor fusion dimerization assay

Protein | % repression of λpR-lacZ
B1 | 60.1%
B2 | 57.6%
B3 | 49.7%
B4 | 53.7%
B5 | 60.3%
B6 | 49%
